{"source": "paper PMC6391921", "experiment_in_all_cases": "BLI", "key": {"[1]": {"molecular_target": "H3ssF_C, H3 stabilized HA stem ferritin nanoparticle, design C (influenza A virus A/Finland/486/2004 (H3N2) | not stated) (UniProt Q9ZLI1)"}, "[2]": {"molecular_target": "H3ssF_H, H3 stabilized HA stem ferritin nanoparticle, design H (influenza A virus A/Finland/486/2004 (H3N2) | not stated) (UniProt Q9ZLI1)"}, "[3]": {"molecular_target": "full-length H3 HA trimer (influenza A virus (H3))"}}}
{"substance": "CT149 Fab", "values": [{"measurement": "Kd", "setting": "[1]", "result": 21.3, "unit": "nM"}, {"measurement": "koff", "setting": "[1]", "result": 0.017, "unit": "s⁻¹"}, {"measurement": "kon", "setting": "[1]", "result": 810000, "unit": "M⁻¹ s⁻¹"}, {"measurement": "Kd", "setting": "[2]", "result": 22.2, "unit": "nM"}, {"measurement": "koff", "setting": "[2]", "result": 0.018, "unit": "s⁻¹"}, {"measurement": "kon", "setting": "[2]", "result": 820000, "unit": "M⁻¹ s⁻¹"}, {"measurement": "Kd", "setting": "[3]", "result": 42.2, "unit": "nM"}, {"measurement": "koff", "setting": "[3]", "result": 0.0032, "unit": "s⁻¹"}, {"measurement": "kon", "setting": "[3]", "result": 75000, "unit": "M⁻¹ s⁻¹"}]}
